Tested on: peptide library, one residue held at a place counted from the S/T acceptor
Assay: relative phosphorylation of the sub-library (ratio to the mean residue at this position); higher = residue favoured
Method in brief: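 Relative sub-library phosphorylation, a ratio to the mean residue at that position, was obtained by phosphorimaging and densitometry of spots on streptavidin membranes. Before capture, purified recombinant kinases were incubated for 90 min under kinase-specific conditions with 50 μM biotinylated degenerate peptide sub-libraries and 50 μM ATP spiked with γ-32P-ATP. Each sub-library fixed one residue at one position around a central Ser/Thr.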

Sequence of CAMK1G, construct: aa4-312, human (Q96NX5 4-312, looked up): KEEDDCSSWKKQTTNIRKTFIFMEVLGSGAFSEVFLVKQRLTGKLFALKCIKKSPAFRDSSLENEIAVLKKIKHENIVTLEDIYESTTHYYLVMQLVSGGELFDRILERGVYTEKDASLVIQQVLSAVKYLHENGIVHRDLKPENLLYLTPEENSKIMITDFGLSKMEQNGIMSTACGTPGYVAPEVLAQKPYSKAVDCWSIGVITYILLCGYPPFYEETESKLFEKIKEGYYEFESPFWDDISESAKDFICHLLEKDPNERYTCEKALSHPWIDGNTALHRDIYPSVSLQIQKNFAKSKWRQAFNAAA

CAMK1G, construct: aa4-312, human (from UniProt Q96NX5)
relative phosphorylation
Settings	at +1	at +2	at +3	at +4	at -1	at -2	at -3	at -4	at -5
A fixed	0.642	0.76	0.621	0.551	0.799	0.862	0.549	0.716	0.628
D fixed	0.415	0.664	0.754	0.687	0.868	0.426	0.285	0.428	0.451
E fixed	0.379	0.584	0.709	0.651	0.562	0.421	0.274	0.548	0.424
F fixed	2.19	0.959	1.5	1.69	0.634	0.743	0.545	0.916	1.01
G fixed	0.693	0.541	0.763	0.665	0.98	0.927	0.395	0.754	0.628
H fixed	0.691	1.37	1.2	0.846	0.991	0.867	0.602	1.08	0.879
I fixed	0.442	1.1	0.904	1.09	0.554	0.413	0.413	0.913	1.26
K fixed	2.37	1.51	1.22	1.02	2.43	1.64	1.95	2.49	1.38
L fixed	0.51	1.09	1.08	1.99	0.684	0.554	0.506	0.979	2.03
M fixed	0.931	0.968	1.01	1.43	0.723	1.02	0.68	0.936	1.29
N fixed	0.894	1.18	1.41	0.972	1.71	1.03	0.48	0.833	0.656
P fixed	0.305	0.403	0.435	0.747	1.17	0.386	0.343	0.496	0.933
Q fixed	1.27	0.908	0.969	0.986	1.05	2.24	0.777	0.936	0.84
R fixed	3.15	1.78	1.53	1.1	1.97	3.14	7.64	2.06	2.08
V fixed	0.463	0.892	0.642	0.67	0.675	0.483	0.366	0.754	0.818
W fixed	0.896	1.08	1.28	1.05	0.575	1.13	0.617	1.17	0.692
Y fixed	0.756	1.22	0.981	0.856	0.63	0.712	0.581	0.991	0.982
pThr fixed	0.933	1.57	0.938	1.1	0.856	0.667	0.447	0.759	0.579
pTyr fixed	0.717	4.89	1.31	0.992	0.749	0.652	0.486	0.704	0.774

CDK2, construct: Full length, human (from UniProt P24941)
relative phosphorylation
Settings	at +1	at +2	at +3	at +4	at -1	at -2	at -3	at -4	at -5
A fixed	0.422	0.748	0.457	0.579	0.947	0.875	1.06	1.02	1.03
D fixed	0.304	0.611	0.279	0.735	1.08	0.754	0.692	1.01	1.09
E fixed	0.304	0.544	0.265	0.591	0.846	0.701	0.887	1.08	0.998
F fixed	0.365	0.976	0.438	0.837	1.1	1.29	0.928	1.08	1.01
G fixed	0.923	0.664	0.497	1.13	1.39	0.891	1.6	1.03	0.824
H fixed	0.367	1.28	0.871	1.04	0.879	1.21	1.3	1.21	1.17
I fixed	0.409	0.781	0.325	0.92	0.428	0.804	0.877	0.911	0.684
K fixed	0.439	1.91	8.59	1.62	1.01	0.798	0.839	1.02	1.17
L fixed	0.384	0.947	0.358	1.12	1.02	1.27	0.88	0.911	0.787
M fixed	0.407	1.09	0.405	1.3	1.02	1.27	0.895	0.814	0.8
N fixed	0.402	1.08	0.524	1.06	1.01	0.963	0.91	0.888	0.813
P fixed	10.1	0.384	0.626	0.731	0.7	1.3	0.804	0.589	1.1
Q fixed	0.499	1.47	0.665	1.17	1.37	1.09	1.18	1.18	1.13
R fixed	0.494	1.94	1.49	0.939	1.3	0.684	0.88	0.829	1.06
V fixed	0.516	1.08	0.392	0.977	0.643	0.892	1.04	0.907	1
W fixed	0.326	0.667	0.429	1.32	1.34	1.19	1.2	1.4	1.13
Y fixed	0.33	0.82	0.393	0.935	0.92	1.01	1.03	1.1	1.19
pThr fixed	1.22	0.953	1.31	0.611	0.373	0.917	1.01	0.787	0.965
pTyr fixed	2.21	0.603	1.1	0.825	0.766	1.63	1.13	0.938	0.898
